The values below come from PMC5823465 (PLoS Neglected Tropical Diseases, 2018).

One may read the Kd as the concentration at which binding is half-saturated.

Common to all, as to experiment: ELISA; competition ELISA, KD in solution at equilibrium: serial dilutions of EDIII mixed with antibody at 0.2 nM, incubated overnight; unbound or singly bound antibody measured on Maxisorp plates coated with EDIII-DV1, detected with HRP rabbit anti-human IgG; mass action model adjusted for antibody bivalence
A general note: ELISA stands for enzyme-linked immunosorbent assay.

One assay deals with VIS513.
For assay [1], the target named is EDIII domain of the E protein, DENV1 HAW, wild type (Dengue virus type 1, strain Hawaii 1944 …, UniProt A0A097PIH4, strain). Particulars: both partners purified.
In assay [2] the target is T1, EDIII domain of the E protein, DENV2 NGC, wild type (Dengue virus type 2, strain NGC …, UniProt A0A097PIE2, strain).
T1 construct: also called DENV2 NGC WT; DV2-NGC
Particulars: both partners purified.

For assay [3], the target named is EDIII domain of the E protein, DENV3 H87, wild type (Dengue virus type 3, strain H87 …, UniProt A0A0U2UQM7, strain). Particulars: both partners purified.

Consider “EDIII domain of the E protein, DENV1 HAW, K310R (domain or fragment)”, for which the Kd with VIS513 worked out at 0.39 nM.

In the case of “EDIII domain of the E protein, DENV2 NGC, K310R (domain or fragment)”, in the assay with VIS513, the dissociation constant Kd worked out at 0.79 nM.

With “EDIII domain of the E protein, DENV3 H87, K308R (domain or fragment)”, in the assay with VIS513, the dissociation constant (Kd) came out at 170 nM.

Consider “EDIII domain of the E protein, DENV3 H87, L301S (domain or fragment)”, for which, in the assay with VIS513, the Kd was 1.7 nM.

In turn, “EDIII domain of the E protein, DENV4 BC287, K310R (domain or fragment)” returned a Kd with VIS513 of 618 nM.

B1: VIS513 (antibody, V domains shown)
VH: QVQLVQSGAEVKKPGASVKVSCKAGFNIKDVYMSWVRQAPEQGLEWMGRIDPENGDTKYDPKLQGRVTMTADTSTNTAYMELRSLRSDDTAVYYCARGWEGFAYWGQGTLVTVSS
VL: DIVMTQSPASLAVSLGQRATISCRASENVDKYGNSFMHWYQQKPGQPPKLLIYRASELQWGVPDRFSGSGSGTDFTLTISSLQAEDVAVYYCQRSNEVPWTFGQGTKLEIK
In the case of B1, the equilibrium dissociation constant (Kd) was less than 0.1 nM in assay [1], less than 0.1 nM in assay [2] and 1.5 nM in assay [3].
